Measurements from publication PMC9482650, “Quantitative fragmentomics allow affinity mapping of interactomes” (Nature Communications, 2022).

T1: DFNB31_2, Q9P202
T1 sequence (Q9P202 274-371, limits assumed, looked up): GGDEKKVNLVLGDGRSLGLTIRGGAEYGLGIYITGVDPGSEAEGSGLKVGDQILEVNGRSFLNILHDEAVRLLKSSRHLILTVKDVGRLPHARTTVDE

T2: PDZRN3_1, Q9UPQ7
T2 sequence (Q9UPQ7 244-349, limits assumed, looked up): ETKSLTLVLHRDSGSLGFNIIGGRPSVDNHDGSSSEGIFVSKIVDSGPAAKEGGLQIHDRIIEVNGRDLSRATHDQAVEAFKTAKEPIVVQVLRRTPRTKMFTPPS

T3: MPP7, Q5T2T1
T3 sequence (Q5T2T1 134-230, limits assumed, looked up): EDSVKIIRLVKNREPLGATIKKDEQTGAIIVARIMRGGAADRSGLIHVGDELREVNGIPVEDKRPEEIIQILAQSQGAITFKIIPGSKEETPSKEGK

T4: GRIP1_3, Q9Y3R0
T4 sequence (Q9Y3R0 247-346, limits assumed, looked up): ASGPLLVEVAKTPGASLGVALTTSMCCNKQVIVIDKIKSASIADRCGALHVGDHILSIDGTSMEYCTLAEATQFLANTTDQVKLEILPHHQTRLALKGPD

T5: DLG3_2, Q92796
T5 sequence (Q92796 221-321, limits assumed, looked up): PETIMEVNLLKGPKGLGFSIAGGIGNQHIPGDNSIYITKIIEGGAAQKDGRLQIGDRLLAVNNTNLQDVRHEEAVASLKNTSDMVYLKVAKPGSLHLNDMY

T6: SYNJ2BP, P57105
T6 sequence (P57105 8-110, limits assumed, looked up): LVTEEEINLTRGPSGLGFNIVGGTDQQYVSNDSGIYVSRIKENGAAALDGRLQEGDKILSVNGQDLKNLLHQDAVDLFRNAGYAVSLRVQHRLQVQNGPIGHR

T7: HTRA4, P83105
T7 sequence (P83105 378-476, limits assumed, looked up): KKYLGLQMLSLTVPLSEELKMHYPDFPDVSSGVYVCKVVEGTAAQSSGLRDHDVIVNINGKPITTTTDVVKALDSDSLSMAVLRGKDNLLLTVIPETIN

T8: ARHGAP21, Q5T5U3
T8 sequence (Q5T5U3 45-169, limits assumed, looked up): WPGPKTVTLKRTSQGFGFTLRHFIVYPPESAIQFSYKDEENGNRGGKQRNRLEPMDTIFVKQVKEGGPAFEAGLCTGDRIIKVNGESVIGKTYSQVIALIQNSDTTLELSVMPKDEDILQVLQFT

T9: LIN7B, Q9HAP6
T9 sequence (Q9HAP6 88-185, limits assumed, looked up): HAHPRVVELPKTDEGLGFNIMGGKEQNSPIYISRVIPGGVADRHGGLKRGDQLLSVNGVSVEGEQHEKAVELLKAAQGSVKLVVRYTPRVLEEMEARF

T10: MPP6, Q9NZW5
T10 sequence (Q9NZW5 125-219, limits assumed, looked up): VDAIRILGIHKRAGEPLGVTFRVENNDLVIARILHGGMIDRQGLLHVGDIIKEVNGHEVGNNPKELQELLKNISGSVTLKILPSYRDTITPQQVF

T11: NHERF3_1, Q5T2W1
T11 sequence (Q5T2W1 4-100, limits assumed, looked up): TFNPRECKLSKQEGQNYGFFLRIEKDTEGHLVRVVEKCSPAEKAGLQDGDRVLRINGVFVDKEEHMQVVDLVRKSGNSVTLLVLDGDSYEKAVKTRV

T12: SNTG1, Q9NSN8
T12 sequence (Q9NSN8 52-150, limits assumed, looked up): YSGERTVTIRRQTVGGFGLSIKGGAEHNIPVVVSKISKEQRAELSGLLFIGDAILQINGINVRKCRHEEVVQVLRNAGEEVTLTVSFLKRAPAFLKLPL


What was measured:
Experiment in all cases: holdup assay
Design in all cases: key: below the threshold = too weak to quantify, mostly under pKd 3.1 to 4
Conditions in all cases: plain residues with an end cap or a label only (N-terminal biotin on a linker: ado-ado)
GRIP2_7, Q9C0E4 = biological target: GRIP2_7, Q9C0E4
DFNB31_2, Q9P202 = biological target: T1, DFNB31_2, Q9P202
FRMPD2_3, Q68DX3 = biological target: FRMPD2_3, Q68DX3
MAGI1_2, Q96QZ7 = biological target: MAGI1_2, Q96QZ7
LDB3, O75112 = biological target: LDB3, O75112
PDZRN3_1, Q9UPQ7 = biological target: T2, PDZRN3_1, Q9UPQ7
MPP7, Q5T2T1 = biological target: T3, MPP7, Q5T2T1
Inadl_10, Q8NI35 = biological target: Inadl_10, Q8NI35
GRIP1_3, Q9Y3R0 = biological target: T4, GRIP1_3, Q9Y3R0
DLG3_2, Q92796 = biological target: T5, DLG3_2, Q92796
GIPC2, Q8TF65 = biological target: GIPC2, Q8TF65
SYNJ2BP, P57105 = biological target: T6, SYNJ2BP, P57105
GRIP2_5, Q9C0E4 = biological target: GRIP2_5, Q9C0E4
Inadl_2, Q8NI35 = biological target: Inadl_2, Q8NI35
MAGI2_5, Q86UL8 = biological target: MAGI2_5, Q86UL8
HTRA4, P83105 = biological target: T7, HTRA4, P83105
ARHGAP21, Q5T5U3 = biological target: T8, ARHGAP21, Q5T5U3
LIN7B, Q9HAP6 = biological target: T9, LIN7B, Q9HAP6
PICK1, Q9NRD5 = biological target: PICK1, Q9NRD5
Inadl_6, Q8NI35 = biological target: Inadl_6, Q8NI35
MPP6, Q9NZW5 = biological target: T10, MPP6, Q9NZW5
NHERF3_1, Q5T2W1 = biological target: T11, NHERF3_1, Q5T2W1
SNTG1, Q9NSN8 = biological target: T12, SNTG1, Q9NSN8
MAGI3_2, Q5TCQ9 = biological target: MAGI3_2, Q5TCQ9
MAGI3_2, Q5TCQ9, sequence (Q5TCQ9 398-503): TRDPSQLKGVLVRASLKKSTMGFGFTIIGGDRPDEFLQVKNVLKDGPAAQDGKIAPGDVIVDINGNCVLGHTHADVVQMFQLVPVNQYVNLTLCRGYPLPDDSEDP

MAGI1_2, Q96QZ7, sequence (Q96QZ7 456-580): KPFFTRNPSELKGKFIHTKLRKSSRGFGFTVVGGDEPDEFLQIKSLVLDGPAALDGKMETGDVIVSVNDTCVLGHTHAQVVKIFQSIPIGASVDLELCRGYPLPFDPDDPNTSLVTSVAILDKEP
GRIP2_5, Q9C0E4, sequence (Q9C0E4 544-642): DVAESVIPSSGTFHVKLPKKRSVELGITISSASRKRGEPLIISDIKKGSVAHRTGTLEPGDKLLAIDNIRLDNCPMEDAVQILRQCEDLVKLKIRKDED
FRMPD2_3, Q68DX3, sequence (Q68DX3 1073-1166): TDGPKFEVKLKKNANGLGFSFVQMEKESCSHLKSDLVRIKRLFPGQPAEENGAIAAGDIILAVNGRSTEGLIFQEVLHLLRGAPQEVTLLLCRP
Inadl_6, Q8NI35, sequence (Q8NI35 1058-1167): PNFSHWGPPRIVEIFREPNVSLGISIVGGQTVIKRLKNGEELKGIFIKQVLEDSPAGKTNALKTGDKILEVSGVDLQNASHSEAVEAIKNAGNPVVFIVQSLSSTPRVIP
LDB3, O75112, sequence (O75112 1-94): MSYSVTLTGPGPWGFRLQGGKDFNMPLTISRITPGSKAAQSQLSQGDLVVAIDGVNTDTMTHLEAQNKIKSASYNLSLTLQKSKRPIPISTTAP
MAGI2_5, Q86UL8, sequence (Q86UL8 915-1017): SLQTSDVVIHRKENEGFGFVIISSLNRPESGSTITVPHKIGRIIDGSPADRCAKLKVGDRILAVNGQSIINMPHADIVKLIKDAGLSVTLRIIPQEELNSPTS
GIPC2, Q8TF65, sequence (Q8TF65 112-203): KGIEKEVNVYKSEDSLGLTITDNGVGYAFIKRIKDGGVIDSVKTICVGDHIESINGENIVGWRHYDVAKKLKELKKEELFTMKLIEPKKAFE
Inadl_10, Q8NI35, sequence (Q8NI35 1673-1763): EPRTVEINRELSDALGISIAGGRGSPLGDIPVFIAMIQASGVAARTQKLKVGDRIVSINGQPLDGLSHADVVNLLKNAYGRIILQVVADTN
GRIP2_7, Q9C0E4, sequence (Q9C0E4 934-1023): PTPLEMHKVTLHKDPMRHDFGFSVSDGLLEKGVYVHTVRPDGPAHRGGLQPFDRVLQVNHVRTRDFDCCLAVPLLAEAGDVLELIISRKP
Inadl_2, Q8NI35, sequence (Q8NI35 238-335): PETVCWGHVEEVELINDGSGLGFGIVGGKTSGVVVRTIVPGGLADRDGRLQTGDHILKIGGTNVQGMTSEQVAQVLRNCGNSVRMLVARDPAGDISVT
PICK1, Q9NRD5, sequence (Q9NRD5 17-115): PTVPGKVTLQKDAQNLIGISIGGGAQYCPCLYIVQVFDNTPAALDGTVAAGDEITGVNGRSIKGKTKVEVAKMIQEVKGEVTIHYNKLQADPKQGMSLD

pKd (GRIP2_7, Q9C0E4) | pKd (DFNB31_2, Q9P202) | pKd (FRMPD2_3, Q68DX3) | pKd (MAGI1_2, Q96QZ7) | pKd (LDB3, O75112) | pKd (PDZRN3_1, Q9UPQ7) | pKd (MPP7, Q5T2T1) | pKd (Inadl_10, Q8NI35) | pKd (GRIP1_3, Q9Y3R0) | pKd (DLG3_2, Q92796) | pKd (GIPC2, Q8TF65) | pKd (SYNJ2BP, P57105) | pKd (GRIP2_5, Q9C0E4) | pKd (Inadl_2, Q8NI35) | pKd (MAGI2_5, Q86UL8) | pKd (HTRA4, P83105) | pKd (ARHGAP21, Q5T5U3) | pKd (LIN7B, Q9HAP6) | pKd (PICK1, Q9NRD5) | pKd (Inadl_6, Q8NI35) | Binder | further results
below the threshold | below the threshold | below the threshold | below the threshold | below the threshold | below the threshold | below the threshold | below the threshold | below the threshold | below the threshold | below the threshold | 3.79 | below the threshold | below the threshold | below the threshold | 3.62 | 4.03 | 3.62 | below the threshold | below the threshold | RALRASESGI [ADGRE5, P48960] | pKd (MPP6, Q9NZW5): 3.59; pKd (NHERF3_1, Q5T2W1): below the threshold; pKd (SNTG1, Q9NSN8): below the threshold; pKd (MAGI3_2, Q5TCQ9): below the threshold
below the threshold | below the threshold | 3.53 | 3.7 | below the threshold | 3.48 | below the threshold | 3.75 | below the threshold | 4.89 | below the threshold | 3.79 | below the threshold | 3.76 | 4.63 | 4.77 | 3.96 | below the threshold | 4.3 | 4 | PMESGICTIV [TTC24, A2A3L6] | pKd (MPP6, Q9NZW5): below the threshold; pKd (NHERF3_1, Q5T2W1): 4.02; pKd (SNTG1, Q9NSN8): 4.06; pKd (MAGI3_2, Q5TCQ9): 4.52
below the threshold | below the threshold | 3.58 | below the threshold | below the threshold | 3.49 | below the threshold | below the threshold | below the threshold | below the threshold | 3.62 | below the threshold | 3.51 | below the threshold | below the threshold | below the threshold | 3.54 | 3.65 | below the threshold | below the threshold | TMQMSLKDLL [GLA, P06280] | pKd (MPP6, Q9NZW5): below the threshold; pKd (NHERF3_1, Q5T2W1): 4.34; pKd (SNTG1, Q9NSN8): 3.5; pKd (MAGI3_2, Q5TCQ9): below the threshold
